The values below come from patent publication US20210214447A1 (SHANGHAI INSTITUTE OF MATERIA MEDICA CHINESE ACADEMY OF …, published 2021).

Several values for one entry are separate records, joined by “and”; a condition that tells them apart may be missing. Equal entries are not always repeated. Where two headings read alike, the source gives them in different places.

The EC50 is the concentration that produces a half-maximal response.

Assay [1] has as its target T1, human AXL on the surface of tumor cells (human, UniProt P30530 26-894).
T1 construct: whole, on cells; endogenous protein of human tumor cell lines; the cell line is named under assay or readout; also called AXL on the cell surface
T1 sequence (looked up): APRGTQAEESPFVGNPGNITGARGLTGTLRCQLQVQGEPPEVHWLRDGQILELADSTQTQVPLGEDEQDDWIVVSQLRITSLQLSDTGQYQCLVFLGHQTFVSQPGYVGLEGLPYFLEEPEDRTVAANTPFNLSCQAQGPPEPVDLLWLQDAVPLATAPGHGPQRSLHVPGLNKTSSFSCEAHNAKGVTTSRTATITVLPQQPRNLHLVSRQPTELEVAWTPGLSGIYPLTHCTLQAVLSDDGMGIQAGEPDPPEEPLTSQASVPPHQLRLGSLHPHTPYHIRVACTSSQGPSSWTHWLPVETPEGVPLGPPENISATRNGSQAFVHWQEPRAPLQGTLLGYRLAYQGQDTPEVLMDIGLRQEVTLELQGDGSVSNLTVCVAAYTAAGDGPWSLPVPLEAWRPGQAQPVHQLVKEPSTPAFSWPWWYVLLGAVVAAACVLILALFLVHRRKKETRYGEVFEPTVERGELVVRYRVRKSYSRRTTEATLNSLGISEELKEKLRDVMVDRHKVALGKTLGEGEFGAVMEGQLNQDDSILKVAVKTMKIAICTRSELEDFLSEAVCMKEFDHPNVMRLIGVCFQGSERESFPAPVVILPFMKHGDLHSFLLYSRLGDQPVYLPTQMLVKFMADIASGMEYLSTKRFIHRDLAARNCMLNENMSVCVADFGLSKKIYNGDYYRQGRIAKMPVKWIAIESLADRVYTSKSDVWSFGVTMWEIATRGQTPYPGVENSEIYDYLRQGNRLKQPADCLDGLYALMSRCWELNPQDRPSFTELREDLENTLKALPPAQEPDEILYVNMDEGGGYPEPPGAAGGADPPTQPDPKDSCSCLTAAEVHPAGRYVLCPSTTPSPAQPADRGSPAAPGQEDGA
The assay can be described thus: FACS, 5 ug/mL antibody, NCI-H1299 cells compared with AXL-low MDA-MB-453 cells. On the procedure:
(§1) 3×10⁵ tumor cells were mixed well with the antibody (final concentration was 5 μg/mL), and then incubated at 4° C. for 1 hour. The cells were washed twice with PBS to remove unbound primary antibody. Then 200 μL ([…]) PE-labeled secondary antibody was added and incubated at 4° C. for 30 min. The cells were washed twice with PBS to remove unbound secondary antibodies. Finally, the cells were resuspended in 200 μL PBS. The Binding affinity of the tested antibody to AXL on the cell surface or the overall binding fluorescence intensity (MFI) of different tumor cells at the same antibody concentration was determined with a flow cytometer (FACSCalibur).
(§2) The chimeric antibody mAb002c could specifically recognize and bind tumor cells with AXL high expression.
For orientation: Flow cytometry measures light scatter and fluorescence of single cells or particles in a stream.

The target of assay [2] is T1, human AXL on the surface of tumor cells. The assay is described as follows: FACS on NCI-H1299 cells. On the procedure: (§3) Then the obtained solutions were incubated at 4° C. for 1 h, the cells were washed twice with PBS to remove unbound primary antibody, and then the target cells were incubated with 200 μL PE-labeled secondary antibody (2 μg/mL) at 4° C. for 30 min. The cells were washed twice with PBS to remove unbound secondary antibody. Finally, the cells were resuspended in 200 μL PBS, and the binding affinity of the test antibody to AXL on the cell surface was determined by a flow cytometer (FACSCalibur)
AXL-high-expression lung cancer cells NCI-H1299 were used as target cells. 100 μL of the test antibody diluted in a 3-fold gradient was used as primary antibody, and mixed with 1×10⁵ NCI-H1299 cells suspended in 100 μL RPMI-1640 serum-free medium. The operation method was the same as above. Finally, the cells were resuspended in 200 μL PBS, and the binding affinity of the tested antibody to AXL on the cell surface was determined by a flow cytometer (FACSAria II).

Assay [3] shares this target. The assay can be described thus: FACS on MDA-MB-231 cells.
The target of assay [4] is T2, extracellular domain of human AXL protein (AXL-ECD) (human, UniProt P30530 31-449).
T2 construct: expressed in HEK293T cells; coated on the ELISA plate; also called AXL-ECD protein; human AXL extracellular domain protein
T2 sequence: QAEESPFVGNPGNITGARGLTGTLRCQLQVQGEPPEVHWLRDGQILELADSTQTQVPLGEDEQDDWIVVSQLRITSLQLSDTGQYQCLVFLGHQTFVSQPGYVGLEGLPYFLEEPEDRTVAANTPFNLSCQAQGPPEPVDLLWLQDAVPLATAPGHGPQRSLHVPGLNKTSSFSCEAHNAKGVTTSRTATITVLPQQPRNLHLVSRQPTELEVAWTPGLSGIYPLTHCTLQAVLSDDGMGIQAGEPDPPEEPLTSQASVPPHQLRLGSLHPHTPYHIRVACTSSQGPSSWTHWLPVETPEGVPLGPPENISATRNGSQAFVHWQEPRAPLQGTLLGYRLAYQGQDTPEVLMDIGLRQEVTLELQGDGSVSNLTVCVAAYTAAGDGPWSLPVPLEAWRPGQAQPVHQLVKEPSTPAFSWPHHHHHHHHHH
The assay can be described thus: ELISA, plate-coated AXL-ECD. The procedure:
The extracellular domain of AXL protein (AXL-ECD) was diluted to […] with the coating solution, and coated onto ELISA plate with 100 μL/well at 4° C. overnight. The excess antigen was washed off. The plate was blocked with 1% BSA at room temperature for 2 h, then each monoclonal antibody in a 3-fold dilution was added at 100 µL/well. The plate was incubated at room temperature for 1 h; the unbound antibody was washed off, and appropriate concentration of anti-mouse secondary antibody labeled with horseradish peroxidase was added at 100 µL/well. The plate was incubated at room temperature for 0.5 h. The unbound secondary antibody was washed off. TMB Substrate was added and reacted for about 15 minutes. 1N HCL was added at 50 µL/well to stop the color reaction. Then the absorbance was measured at 450 nm and the obtained data was analyzed.

Assay [5] has as its target T1, human AXL on the surface of tumor cells. The assay is described as follows: FACS, 5 ug/mL antibody, LCLC-103H cells compared with AXL-low MDA-MB-453 cells. On the procedure:
as §1, §2

The target in assay [6] is T2, extracellular domain of human AXL …. The assay can be described thus: ELISA, plate-coated AXL-ECD. This is another data set of the same source. Background: In an ELISA, binding on a coated surface is turned into a signal by an enzyme label.
The target of assay [7] is T1, human AXL on the surface of tumor cells. The assay can be described thus: FACS on MDA-MB-231 cells. The procedure:
as §3
This is another data set of the same source.

For assay [8] the target is unchanged. The assay can be described thus: FACS on MDA-MB-231 cells, mean EC50. On the procedure:
as §3

B1: mAb002c (antibody, V domains shown)
VH: QIQLQQSGPELVKPGASVKISCKASGYPFTDFYINWVKQKPGQGLEWIGWIYPGSGNTKYNEKFKGKATLTVDTSSSTAYMQLSSLTSEDTAVYFCARSTGFFDYWGQGTTLTVSS
VL: QIVLTQSPALMSASPGEKVTMTCSASSSIGYMYWYQQKPRSSPKSWIYLTSNLASGVPARFSGSGSGTSYSLTISSMEAEDAATYYCQQWSSNPPTFGAGTKLELK
notes: also called human-mouse chimeric antibody mAb002c
Turning to B1, the “fold difference of binding rate (MFI) against MDA-MB-453 cells” value was 127 times in assay [1] and 91 times in assay [5]. Also, the EC50 in assay [2] is 456 pM; in assay [3], 160 pM and 169 pM; in assay [4], 73 pM; in assay [6], 82 pM and 76 pM; in assay [8], 174 pM. Also, the “Highest MFI value (FACSAria II)” value in assay [2] was found to be 2260 MFI. In assay [4], the “Highest reading (OD450 nm)” value came out at 3.79 OD450 nm. In addition, the “Highest MFI value (FACSCalibur)” value in assay [7] came out at 242 MFI.
